This is an account of results in PMC11091976, “Shorter Peptide Nucleic Acid Probes Improve Affibody-Mediated Peptide Nucleic Acid-Based Pretargeting” (ACS Pharmacology & Translational Science, 2024).

The subject of one data set is BT-474 cells. Nature of the data set: Cellular processing and retention (acid wash), BT-474. It counts as cell-based, human. Conditions: BT-474 pretreated with 1 nM nonlabeled Z-HP9; labeled secondary probe 10 nM; n = 3. As for the experimental part: (§1) After a 24 h incubation period, the total cell-associated bound activity was recorded as 72.0 ± 1.7 and 65.2 ± 1.8% for [^177Lu]Lu-Z-HP9, and 74.5 ± 0.2 and 55.6 ± 2.4% for [^177Lu]Lu-Z-HP12 on SKOV-3 and BT-474 cells, respectively. The internalized fractions were quantified as 9.7 ± 1.1 and 10.4 ± 0.6% for [^177Lu]Lu-Z-HP9 and [^177Lu]Lu-Z-HP12 after 24 h of incubation. The pattern was similar for both HER2-expressing cell lines, with slow internalization, which is typical for affibody molecules.
(§2) Figure 5 Cellular processing and retention of [^177Lu]Lu-Z-HP9 (A,B), [^177Lu]Lu-Z-HP12 (C,D), [^177Lu]Lu-HP16 (E,F), and [^177Lu]Lu-HP20 (G, H) on SKOV-3 (A,C,E,G) and BT-474 (B,D,F,H) cells after interrupted incubation with labeled compounds. […] The data are presented as an average value from three samples ±SD.
(§3) The pattern of internalization of the labeled secondary probes by cancer cells, which were pretreated with primary probes, was similar to the pattern for primary agents. […]
(§4) A validated acid-wash method[53] was used for cellular processing and retention of radiolabeled probes by SKOV-3 and BT-474 using interrupted incubation procedure. […] The radioactivity in each fraction was measured using an automated gamma spectrometer. The radioactivity of acidic and alkaline fractions was considered as membrane and internalized parts, respectively. […]

A further data set in a line: in vivo. Further details: species or system BALB/C nu/nu mice. Conditions: female, BALB/C nu/nu, mouse, total radioactivity. The source says: Animal studies were planned in agreement with EU Directive 2010/63/EU for animal experiments and Swedish national legislation concerning the protection of laboratory animals and were approved by the Ethics Committee for Animal Research in Uppsala, Sweden (animal permission C4/16). HER2-positive xenografts were implanted by subcutaneous injection of 10^7 SKOV-3 cells in the right hind legs of female BALB/C nu/nu mice. Three weeks after implantation, mice were randomized into 8 groups, with 4 mice in each group. At the time of the experiment, the average animal weight was 20 ± 1 g. The average tumor weight was 0.26 ± 0.14 g. The mice were euthanized at predetermined time points by overdose of Ketamine/Xylazine anesthesia, followed by heart puncture. The organs of interest such as blood, lung, liver, spleen, kidney, muscle, bone, and tumor were collected, weighed, and subsequently their radioactivity was measured. Organs and tumor uptake were calculated as the percentage of the injected dose per gram of the sample (%ID/g).
To evaluate in vivo specificity, 2 groups of mice were injected with [^177Lu]Lu-HP16 and [^177Lu]Lu-HP20 without preinjection of the primary agent. At 4 h postinjection, the mice were euthanized and treated as mentioned above.
Table S2. Comparative biodistribution of [177Lu]Lu-HP16 and [177Lu]Lu-HP20 in BALB/C nu/nu mice bearing SKOV3
xenografts at 4 h post-injection without pre-injection of a primary agent. Data are presented as an average of %ID/g ± SD, n
*Significant (p<0.05) difference; **The gastrointestinal (GI) and carcass data are expressed as %ID per whole sample.

Data set [1] deals with HER2-expressing cell lines pretreated with Z-HP9. Nature of the data set: In vitro pretargeting specificity of secondary probes. It is filed as cell-based, human. Conditions: Z-HP9 1 nM, labeled secondary probe 10 nM, 1 h 37 °C; n = 3. On the procedure:
Figure 4 In vitro binding specificity of primary agents, (A) [^177Lu]Lu-Z-HP9 and (B) [^177Lu]Lu-Z-HP12 on SKOV-3 and BT-474 cell lines. […] In the second and third groups, cells were incubated with a large amount of unlabeled anti-HER2 ZHER2:342 affibody molecule and unlabeled secondary agent before the addition of radiolabeled secondary agent, respectively. A radiolabeled secondary agent was added directly to cells in the fourth group without adding a primary agent. The data are presented as an average value from three samples ±SD.
Figure 4C,D further elucidates the specificity of PNA-mediated pretargeting on HER2-expressing cell lines when cells were pretreated with a primary agent. […] These findings collectively affirm the success of the in vitro pretargeting approach.
Thereafter, ^177Lu-secondary probe (10 nM) was added, and cells were incubated for 1 h at 37 °C. After that, cells were treated as mentioned above. […] Then, a radiolabeled secondary probe (10 nM) was added and incubated for 1 h at 37 °C. Further treatment was the same as pretargeting group. […] Further treatment was the same as mentioned above. To evaluate unspecific binding, the radiolabeled secondary probe (10 nM) was added to the cells without any pretreatment with the primary agent and incubated for 1 h at 37 °C. After incubation, the cells were washed and treated as mentioned above.

A further data set concerns SKOV-3 cells. The data set can be described thus: Cellular processing and retention (acid wash), SKOV-3. It counts as cell-based, human. Conditions: SKOV-3 pretreated with 1 nM nonlabeled Z-HP9; labeled secondary probe 10 nM; n = 3. On the procedure:
as §1, §2, §3, §4

As for `NC(=O)[C@H](Cc1ccc(O)cc1)NC(=O)[C@H](CCC(=O)O)NC(=O)[C@H](CCC(=O)O)NC(=O)CN(CCNC(=O)CN(CCNC(=O)CN(CCNC(=O)CN(CCNC(=O)CN(CCNC(=O)CN(CCNC(=O)CN(CCNC(=O)CN(CCNC(=O)[C@H](CO)NC(=O)[C@H](CO)NC(=O)COCCOCCNC(=O)CN1CCN(CC(=O)O)CCN(CC(=O)O)CCN(CC(=O)O)CC1)C(=O)Cn1cnc2c(N)ncnc21)C(=O)Cn1ccc(N)nc1=O)C(=O)Cn1cnc2c(N)ncnc21)C(=O)Cn1ccc(N)nc1=O)C(=O)Cn1ccc(N)nc1=O)C(=O)Cn1cnc2c(N)ncnc21)C(=O)Cn1cnc2c(=O)[nH]c(N)nc21)C(=O)Cn1cnc2c(=O)[nH]c(N)nc21` [[^177Lu]Lu-HP20, metal not drawn], the “total cell-associated bound activity after 24 h” value is 42.2 ± 2.0% in the data set with BT-474 cells and 52.8 ± 0.4% with SKOV-3 cells. The tissue uptake (in general, the share of the injected amount in each gram of the tissue) at 4 h in the data set “in vivo” (Blood) is 0.01 ± 0.004 %ID/g; in the data set “in vivo” (Bone), 0.03 ± 0.02 %ID/g; in “in vivo” (Kidney), 4.86 ± 0.85 %ID/g; in the data set “in vivo” (Liver) it was 0.15 ± 0.01 %ID/g; in “in vivo” (Lung), 0.07 ± 0.01 %ID/g; in “in vivo” (Muscle) it was 0.02 ± 0.01 %ID/g. Moreover, the figures for the tissue uptake at 4 h in “in vivo” (Spleen) and in the data set “in vivo” (Tumour) were 0.07 ± 0.01 %ID/g and 0.11 ± 0.03 %ID/g, respectively. Also, the tissue uptake dose at 4 h in “in vivo” (Carcass) came out at 1.1 ± 0.34 %ID; in the data set “in vivo” (GI), 1.25 ± 1.06 %ID. In data set [1], the “binding to Z-HP9 pretreated cells relative to other treated groups” value was found to be 11 fold.
Regarding `NC(=O)[C@H](Cc1ccc(O)cc1)NC(=O)[C@H](CCC(=O)O)NC(=O)[C@H](CCC(=O)O)NC(=O)CN(CCNC(=O)CN(CCNC(=O)CN(CCNC(=O)CN(CCNC(=O)CN(CCNC(=O)CN(CCNC(=O)CN(CCNC(=O)CN(CCNC(=O)CN(CCNC(=O)[C@H](CO)NC(=O)[C@H](CO)NC(=O)COCCOCCNC(=O)CN1CCN(CC(=O)O)CCN(CC(=O)O)CCN(CC(=O)O)CC1)C(=O)Cn1cnc2c(N)ncnc21)C(=O)Cn1cnc2c(N)ncnc21)C(=O)Cn1ccc(N)nc1=O)C(=O)Cn1cnc2c(N)ncnc21)C(=O)Cn1ccc(N)nc1=O)C(=O)Cn1ccc(N)nc1=O)C(=O)Cn1cnc2c(N)ncnc21)C(=O)Cn1cnc2c(=O)[nH]c(N)nc21)C(=O)Cn1cnc2c(=O)[nH]c(N)nc21` [[^177Lu]Lu-HP16, metal not drawn], the “total cell-associated bound activity after 24 h” value in the data set on BT-474 cells was 26.1 ± 1.2%; in the data set with SKOV-3 cells, 55.0 ± 1.0%. Also, the tissue uptake at 4 h in “in vivo” (Blood) came out at 0.02 ± 0.02 %ID/g; in the data set “in vivo” (Bone), 0.04 ± 0.01 %ID/g; in the data set “in vivo” (Kidney), 4.41 ± 0.61 %ID/g; in “in vivo” (Liver), 0.13 ± 0.01 %ID/g; in the data set “in vivo” (Lung), 0.1 ± 0.03 %ID/g; in the data set “in vivo” (Muscle), 0.05 ± 0.02 %ID/g. The tissue uptake at 4 h was found to be 0.08 ± 0.01 %ID/g in “in vivo” (Spleen) and 0.09 ± 0.01 %ID/g in the data set “in vivo” (Tumour). The tissue uptake dose at 4 h in “in vivo” (Carcass) was found to be 1.49 ± 0.42 %ID; in the data set “in vivo” (GI), 0.61 ± 0.16 %ID. The “binding to Z-HP9 pretreated cells relative to other treated groups” value in data set [1] is listed as 11 fold.
